Source: patent US20230192834A1
Numbering of substitutions follows the chain as printed. Each block holds one binder with its values, some of them ahead of it.

Columns and labels:
TGFβ3 (R&D Systems) [1] = biological target: T1, TGFβ3 (R&D Systems); experiment: cell-based or functional assay
T1 sequence (P10600 301-412, species assumed, looked up): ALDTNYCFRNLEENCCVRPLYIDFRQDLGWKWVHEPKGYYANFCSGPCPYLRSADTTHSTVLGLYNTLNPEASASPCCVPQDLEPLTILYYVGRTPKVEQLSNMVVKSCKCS

TGFβ2 (R&D Systems) [2] = biological target: T2, TGFβ2 (R&D Systems); experiment: cell-based or functional assay
T2 sequence (P61812 303-414, species assumed, looked up): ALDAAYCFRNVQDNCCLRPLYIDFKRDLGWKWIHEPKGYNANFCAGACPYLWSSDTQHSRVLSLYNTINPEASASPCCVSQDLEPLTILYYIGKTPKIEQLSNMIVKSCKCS

TGFβ1 (R&D Systems) [3] = experiment: cell-based or functional assay
Chain of TGFβ1 (R&D Systems) (P01137 279-390): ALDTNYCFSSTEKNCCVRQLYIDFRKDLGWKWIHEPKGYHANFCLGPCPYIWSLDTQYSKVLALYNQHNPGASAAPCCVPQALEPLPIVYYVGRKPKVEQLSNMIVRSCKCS

TGFβ3 (R&D Systems) [4] = biological target: T1, TGFβ3 (R&D Systems); experiment: SPR (Biacore T200), TGFβ amine-coupled to chip, 1:1 fit
TGFβ2 (R&D Systems) [5] = biological target: T2, TGFβ2 (R&D Systems); experiment: as above
TGFβ1 (R&D Systems) [6] = experiment: as above

B1: Felinized anti-TGFβ1,2,3 antibody VH2.1 - VL3 (antibody, V domains shown)
VH: QVLLVQSGADVRKPGASVKIFCKASGYTFTSNVISWVRQTPAQGFEWMGGVIPIVDIANYAQRFKGRLVLTADTSTNTAYMELRSLKSADTAVYYCASTLGLVLDAMDYWGQGSLVTVSS
VL: EIQMTQSPSSLSASPGDRVTITCRASQSLGSSYLAWYQQKPGKVPKLLIYGASSRAPGVPSRFSGSGSGTDFTLTISSLEPEDAATYYCQQYADSPITFGQGTKLEIKR
TGFb3 IC50 (SMAD3 phosphorylation in CMVICs, AlphaLISA) (TGFβ3 (R&D Systems) [1]): 0.132 µg/mL | TGFb2 IC50 (SMAD3 phosphorylation in CMVICs, AlphaLISA) (TGFβ2 (R&D Systems) [2]): 0.277 µg/mL | TGFb1 IC50 (SMAD3 phosphorylation in CMVICs, AlphaLISA) (TGFβ1 (R&D Systems) [3]): 0.597 µg/mL | Kd (TGFβ3 (R&D Systems) [4]): 2.6 nM | Kd (TGFβ2 (R&D Systems) [5]): 1.91 nM | Kd (TGFβ1 (R&D Systems) [6]): 2.89 nM

B2: Felinized anti-TGFβ1,2,3 antibody VH6.1 - VL3 (antibody, V domains shown)
VH: QVLLVQSGAEVRTPGASVKIFCKASGYGFTSNVISWVRQSPAQGLEWMGGVIPIVDIANYAQRFKGRLTLTADTSTDTAYMELSSLRSADTAMYYCASTLGLVLDAMDYWGQGTLVTVSS
VL: B1 VL
TGFb3 IC50 (SMAD3 phosphorylation in CMVICs, AlphaLISA) (TGFβ3 (R&D Systems) [1]): 0.014 µg/mL | TGFb2 IC50 (SMAD3 phosphorylation in CMVICs, AlphaLISA) (TGFβ2 (R&D Systems) [2]): 0.223 µg/mL | TGFb1 IC50 (SMAD3 phosphorylation in CMVICs, AlphaLISA) (TGFβ1 (R&D Systems) [3]): 0.425 µg/mL | Kd (TGFβ3 (R&D Systems) [4]): 3.57 nM | Kd (TGFβ2 (R&D Systems) [5]): 2.99 nM | Kd (TGFβ1 (R&D Systems) [6]): 3.54 nM

B3: Felinized anti-TGFβ1,2,3 antibody VH2.2 - VL3 (antibody, V domains shown)
VH: B1 VH with T30S, I34M, S35H, G50S, N59T, Q62R, K65Q, S98R
VL: B1 VL
TGFb2 IC50 (SMAD3 phosphorylation in CMVICs, AlphaLISA) (TGFβ2 (R&D Systems) [2]): 1.2 µg/mL | TGFb1 IC50 (SMAD3 phosphorylation in CMVICs, AlphaLISA) (TGFβ1 (R&D Systems) [3]): 0.24 µg/mL | Kd (TGFβ3 (R&D Systems) [4]): 3.49 nM | Kd (TGFβ2 (R&D Systems) [5]): 2.39 nM | Kd (TGFβ1 (R&D Systems) [6]): 3.31 nM

B4: Felinized anti-TGFβ1,2,3 antibody VH2.8 - VL6 (antibody, V domains shown)
VH: B1 VH with L3Q, D10E, R12K, A16S, I20V, F21S, T30S, S114T
VL: QSVLTQPPSVSGSLGQRVTISCRASQSLGSSYLAWYQQVPGRAPRLLIYGASSRAPGIPDRFSGSKSGTSGSLTITGLEADDEADYYCQQYADSPITFGGGTHLTVLG
TGFb2 IC50 (SMAD3 phosphorylation in CMVICs, AlphaLISA) (TGFβ2 (R&D Systems) [2]): 0.547 µg/mL | TGFb1 IC50 (SMAD3 phosphorylation in CMVICs, AlphaLISA) (TGFβ1 (R&D Systems) [3]): 0.969 µg/mL | Kd (TGFβ3 (R&D Systems) [4]): 2.41 nM | Kd (TGFβ2 (R&D Systems) [5]): 1.72 nM | Kd (TGFβ1 (R&D Systems) [6]): 2.95 nM

B8: Caninized anti-TGFβ1,2,3 antibody VH3.5 - VL2 (antibody, V domains shown)
VH: EVQLVQSAAEVKKPGASVKVSCKTSGYIFISNVISWVQQAPGAGLEWMGGVIPIVDIANYAQRFKGRVTLTADTSTNTVYMELSNLRTEDTAVYYCASTLGLVLDAMDYWGQGTLVTVSS
VL: ETVLTQSPGTLSLSPGERATLSCRASQSLGSSYLAWYQQKPGQAPRLLIYGASSRAPGVPARFSGSGSGTDFTLTISSLEPEDFAVYYCQQYADSPITFGQGTKLEIKR
TGFb3 IC50 (SMAD3 phosphorylation in CMVICs, AlphaLISA) (TGFβ3 (R&D Systems) [1]): 0.981 µg/mL | TGFb2 IC50 (SMAD3 phosphorylation in CMVICs, AlphaLISA) (TGFβ2 (R&D Systems) [2]): 9.41 µg/mL | TGFb1 IC50 (SMAD3 phosphorylation in CMVICs, AlphaLISA) (TGFβ1 (R&D Systems) [3]): 0.083 µg/mL | Kd (TGFβ3 (R&D Systems) [4]): 1.91 nM | Kd (TGFβ2 (R&D Systems) [5]): 3.56 nM | Kd (TGFβ1 (R&D Systems) [6]): 4.37 nM

The next binders have a lower Kd (TGFβ3 (R&D Systems) [4]) than those just listed; values first:

TGFb3 IC50 (SMAD3 phosphorylation in CMVICs, AlphaLISA) (TGFβ3 (R&D Systems) [1]): 0.056 µg/mL | TGFb2 IC50 (SMAD3 phosphorylation in CMVICs, AlphaLISA) (TGFβ2 (R&D Systems) [2]): 0.691 µg/mL | TGFb1 IC50 (SMAD3 phosphorylation in CMVICs, AlphaLISA) (TGFβ1 (R&D Systems) [3]): 0.019 µg/mL | Kd (TGFβ3 (R&D Systems) [4]): 1.67 nM | Kd (TGFβ2 (R&D Systems) [5]): 2.6 nM | Kd (TGFβ1 (R&D Systems) [6]): 3.68 nM
B7: Caninized anti-TGFβ1,2,3 antibody VH5.6 - VL2 (antibody, V domains shown)
VH: EVQLVESGGDLVKPGGSLRLSCVASGFTFSSNVISWVRQAPGQGLEWMGGVIPIVDIANYAQRFKGRVTITADESTSTTYMELSSLRSEDTAVYYCASTLGLVLDAMDYWGQGTLVTVSS
VL: B8 VL

TGFb3 IC50 (SMAD3 phosphorylation in CMVICs, AlphaLISA) (TGFβ3 (R&D Systems) [1]): 0.062 µg/mL | TGFb2 IC50 (SMAD3 phosphorylation in CMVICs, AlphaLISA) (TGFβ2 (R&D Systems) [2]): 0.609 µg/mL | TGFb1 IC50 (SMAD3 phosphorylation in CMVICs, AlphaLISA) (TGFβ1 (R&D Systems) [3]): 0.122 µg/mL | Kd (TGFβ3 (R&D Systems) [4]): 0.475 nM | Kd (TGFβ2 (R&D Systems) [5]): 1.56 nM | Kd (TGFβ1 (R&D Systems) [6]): 2.57 nM
B5: Caninized anti-TGFβ1,2,3 antibody VH4.5 - VL1 (antibody, V domains shown)
VH: EVQLVESGGDLVKPAGSLRLSCVASGYTFSSNVMSWVRQAPGKGLQWVGYVIPIVDIANYADAVKGRFTISRDNAKNTLYLQMNSLRVEDTAVYYCTRTLGLVLDAMDYWGQGTLVTVSS
VL: B8 VL with V59I, A61D, S78R, K104R

TGFb3 IC50 (SMAD3 phosphorylation in CMVICs, AlphaLISA) (TGFβ3 (R&D Systems) [1]): 0.02 µg/mL | TGFb2 IC50 (SMAD3 phosphorylation in CMVICs, AlphaLISA) (TGFβ2 (R&D Systems) [2]): 0.285 µg/mL | TGFb1 IC50 (SMAD3 phosphorylation in CMVICs, AlphaLISA) (TGFβ1 (R&D Systems) [3]): 0.06 µg/mL | Kd (TGFβ3 (R&D Systems) [4]): 0.43 nM | Kd (TGFβ2 (R&D Systems) [5]): 1.4 nM | Kd (TGFβ1 (R&D Systems) [6]): 2.3 nM
B6: Caninized anti-TGFβ1,2,3 antibody VH4.5 - VL2 (ZTS-207) (antibody, V domains shown)
VH: B5 VH
VL: B8 VL
